The supplement of paper PMC9112550, “Optimization of the antimicrobial peptide Bac7 by deep mutational scanning” (BMC Biology, 2022)

Tested on: Escherichia coli TOP10
Assay: shrunken log2 fold change of peptide-encoding DNA abundance (4.5 h post-induction vs induction); higher = less antimicrobial activity (less host growth inhibition)
Conditions: time post-induction: 4.5 h; library: site-saturation at positions 5, 18, 19, 20
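Also: peptides expressed intracellularly from a pBAD plasmid library in pooled LB shake-flask culture, induced with 0.3% L-arabinose, DNA abundance read by NGS, three biological replicates, DESeq2 with apeglm shrinkage.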

Sequence	shrunken log2 fold change
RRIRSRPPRLPRPRPRPDFRPRP	-0.0983
RRIRCRPPRLPRPRPRPWYEPRP	-0.135
RRIRYRPPRLPRPRPRPVSYPRP	-0.00297
RRIRARPPRLPRPRPRPYENPRP	-0.0975
RRIRLRPPRLPRPRPRPHFVPRP	-0.0621
RRIRIRPPRLPRPRPRPCDYPRP	-1.01
RRIRVRPPRLPRPRPRPAQNPRP	0.261
RRIRMRPPRLPRPRPRPPHSPRP	0.851
RRIRVRPPRLPRPRPRPWRMPRP	0.077
RRIRKRPPRLPRPRPRPEDDPRP	0.00862
RRIRSRPPRLPRPRPRPRCWPRP	0.329
RRIRQRPPRLPRPRPRPQQAPRP	-0.0512
RRIRQRPPRLPRPRPRPMQTPRP	-0.0319
RRIRIRPPRLPRPRPRPLIYPRP	-0.255
RRIRWRPPRLPRPRPRPRSSPRP	0.246
RRIRNRPPRLPRPRPRPQFQPRP	0.0437
RRIRCRPPRLPRPRPRPVKKPRP	0.0604
RRIRSRPPRLPRPRPRPEETPRP	-0.00674
RRIRGRPPRLPRPRPRPKWGPRP	0.215
RRIRQRPPRLPRPRPRPVCMPRP	-0.0787
RRIRMRPPRLPRPRPRPNMWPRP	0.0353
RRIRWRPPRLPRPRPRPFSFPRP	-0.067
RRIRDRPPRLPRPRPRPDCGPRP	0.315
RRIRLRPPRLPRPRPRPAHYPRP	-0.147
RRIRHRPPRLPRPRPRPQNWPRP	0.0558

Sequence	shrunken log2 fold change
RRIRDRPPRLPRPRPRPGRRPRP	0.311
RRIRPRPPRLPRPRPRPIGNPRP	-0.0419
RRIRHRPPRLPRPRPRPVRFPRP	0.106
RRIRTRPPRLPRPRPRPNKCPRP	-0.314
RRIRLRPPRLPRPRPRPYFSPRP	-0.39
RRIRCRPPRLPRPRPRPWLAPRP	-0.298
RRIRERPPRLPRPRPRPMPDPRP	0.17
RRIRPRPPRLPRPRPRPNCPPRP	-0.0126
RRIRVRPPRLPRPRPRPWGTPRP	-0.402
RRIRWRPPRLPRPRPRPGHLPRP	0.0651
RRIRGRPPRLPRPRPRPSLCPRP	1.73
RRIRGRPPRLPRPRPRPMRLPRP	1.05
RRIRWRPPRLPRPRPRPKDQPRP	0.508
RRIRMRPPRLPRPRPRPDICPRP	-0.01
RRIRYRPPRLPRPRPRPHLWPRP	-0.255
RRIRVRPPRLPRPRPRPTNDPRP	0.0333
RRIRVRPPRLPRPRPRPTLQPRP	0.0594
RRIRHRPPRLPRPRPRPASNPRP	-0.456
RRIRCRPPRLPRPRPRPLAAPRP	0.351
RRIRIRPPRLPRPRPRPFYVPRP	-1.11
RRIRLRPPRLPRPRPRPDSDPRP	-0.0524
RRIRRRPPRLPRPRPRPGCWPRP	0.561
RRIRARPPRLPRPRPRPHIWPRP	-0.187
RRIRARPPRLPRPRPRPALHPRP	0.651
RRIRFRPPRLPRPRPRPWYGPRP	-0.138

Sequence	shrunken log2 fold change
RRIRTRPPRLPRPRPRPCSWPRP	0.0291
RRIRTRPPRLPRPRPRPGQDPRP	-0.102
RRIRGRPPRLPRPRPRPISTPRP	0.289
RRIRYRPPRLPRPRPRPHCFPRP	-0.165
RRIRYRPPRLPRPRPRPDWKPRP	-0.208
RRIRQRPPRLPRPRPRPRTWPRP	-0.182
RRIRKRPPRLPRPRPRPPKWPRP	0.0966
RRIRRRPPRLPRPRPRPMVSPRP	0.0678
RRIRLRPPRLPRPRPRPDFAPRP	0.0202
RRIRARPPRLPRPRPRPEIDPRP	1.36
RRIRSRPPRLPRPRPRPPVGPRP	0.457
RRIRNRPPRLPRPRPRPVTNPRP	0.0485
RRIRIRPPRLPRPRPRPTNCPRP	-0.649
RRIRWRPPRLPRPRPRPSFHPRP	-0.458
RRIRPRPPRLPRPRPRPSETPRP	-0.182
RRIRKRPPRLPRPRPRPSAAPRP	0.624
RRIRKRPPRLPRPRPRPGQKPRP	0.212
RRIRTRPPRLPRPRPRPKWQPRP	0.0171
RRIRSRPPRLPRPRPRPNISPRP	0.00233
RRIRYRPPRLPRPRPRPMFKPRP	-0.825
RRIRPRPPRLPRPRPRPPTMPRP	0.223
RRIRDRPPRLPRPRPRPVPQPRP	0.0622
RRIRKRPPRLPRPRPRPCKMPRP	0.093
RRIRIRPPRLPRPRPRPIRGPRP	-0.0199
RRIRMRPPRLPRPRPRPIKFPRP	-0.5
